{"source": "paper doi:10.1101/2024.12.23.630085", "about": "“Accurate sequence-to-affinity models for SH2 domains from multi-round peptide binding assays coupled with free-energy regression” (bioRxiv, 2025)", "binders": {"B1": {"name": "Syn-G2-6 (synthetic) (peptide)", "peptide": "Ac-QHRLNN[pY]ENNRLG-NH2", "notes": "source: synthetic peptide (SynPeptide, China)"}, "B2": {"name": "Syn-F-1 (synthetic) (peptide)", "peptide": "Ac-QLHVHP[pY]EKVEDG-NH2", "SMILES": "CC(=O)N[C@@H](CCC(N)=O)C(=O)N[C@@H](CC(C)C)C(=O)N[C@@H](Cc1c[nH]cn1)C(=O)N[C@H](C(=O)N[C@@H](Cc1c[nH]cn1)C(=O)N1CCC[C@H]1C(=O)N[C@@H](Cc1ccc(OP(=O)(O)O)cc1)C(=O)N[C@@H](CCC(=O)O)C(=O)N[C@@H](CCCCN)C(=O)N[C@H](C(=O)N[C@@H](CCC(=O)O)C(=O)N[C@@H](CC(=O)O)C(=O)NCC(N)=O)C(C)C)C(C)C", "notes": "as for B1"}, "B3": {"name": "CD84 pY296 (peptide)", "peptide": "Ac-QAESRI[pY]DEILQG-NH2", "notes": "flank added to the 11-residue stretch (surmised: last residue of the library's constant GQSGQ); CD84, human, around pY296; flank added to the 11-residue stretch (surmised: first residue of the library's constant GGQSG); source: synthetic peptide (SynPeptide, China)"}, "B4": {"name": "PTPN6 pY564 (peptide)", "peptide": "Ac-QHKEDV[pY]ENLHTG-NH2", "notes": "flank added to the 11-residue stretch (surmised: last residue of the library's constant GQSGQ); PTPN6 (SHP1), human, around pY564; flank added to the 11-residue stretch (surmised: first residue of the library's constant GGQSG); also called SHP1 pY564; source: synthetic peptide (SynPeptide, China)"}, "B5": {"name": "ACTA1 pY171 (peptide)", "peptide": "Ac-QPIFEG[pY]ALPHAG-NH2", "SMILES": "CC[C@H](C)[C@H](NC(=O)[C@@H]1CCCN1C(=O)[C@H](CCC(N)=O)NC(C)=O)C(=O)N[C@@H](Cc1ccccc1)C(=O)N[C@@H](CCC(=O)O)C(=O)NCC(=O)N[C@@H](Cc1ccc(OP(=O)(O)O)cc1)C(=O)N[C@@H](C)C(=O)N[C@@H](CC(C)C)C(=O)N1CCC[C@H]1C(=O)N[C@@H](Cc1c[nH]cn1)C(=O)N[C@@H](C)C(=O)NCC(N)=O", "notes": "flank added to the 11-residue stretch (surmised: last residue of the library's constant GQSGQ); ACTA1, human, around pY171; flank added to the 11-residue stretch (surmised: first residue of the library's constant GGQSG); also called ACTA1 pTyr Y171; source: synthetic peptide (SynPeptide, China)"}, "B6": {"name": "Syn-G2-7 (synthetic) (peptide)", "peptide": "Ac-QIEVGT[pY]QNPHNG-NH2", "notes": "as for B1"}, "B7": {"name": "FITC-Ahx-GDG-pY-EEISPLLL-NH2 (peptide)", "peptide": "{FITC-Ahx}-GDG[pY]EEISPLLL-NH2", "SMILES": "CC[C@H](C)[C@H](NC(=O)[C@H](CCC(=O)O)NC(=O)[C@H](CCC(=O)O)NC(=O)[C@H](Cc1ccc(OP(=O)(O)O)cc1)NC(=O)CNC(=O)[C@H](CC(=O)O)NC(=O)CNC(=O)CCCCCNC(=S)Nc1ccc2c(c1)C(=O)OC21c2ccc(O)cc2Oc2cc(O)ccc21)C(=O)N[C@@H](CO)C(=O)N1CCC[C@H]1C(=O)N[C@@H](CC(C)C)C(=O)N[C@@H](CC(C)C)C(=O)N[C@@H](CC(C)C)C(N)=O", "notes": "fluorescent probe, c-Src SH2 consensus peptide; also called c-Src SH2 consensus; source: synthetic peptide (SynPeptide, China)"}, "B8": {"name": "Syn-G2-2 (synthetic) (peptide)", "peptide": "Ac-QHNIHS[pY]INIPPG-NH2", "notes": "as for B1"}, "B9": {"name": "Syn-F-2 (synthetic) (peptide)", "peptide": "Ac-QMEKHV[pY]ESVTQG-NH2", "SMILES": "CSCC[C@H](NC(=O)[C@H](CCC(N)=O)NC(C)=O)C(=O)N[C@@H](CCC(=O)O)C(=O)N[C@@H](CCCCN)C(=O)N[C@@H](Cc1c[nH]cn1)C(=O)N[C@H](C(=O)N[C@@H](Cc1ccc(OP(=O)(O)O)cc1)C(=O)N[C@@H](CCC(=O)O)C(=O)N[C@@H](CO)C(=O)N[C@H](C(=O)N[C@H](C(=O)N[C@@H](CCC(N)=O)C(=O)NCC(N)=O)[C@@H](C)O)C(C)C)C(C)C", "notes": "as for B1"}, "B10": {"name": "ACTB pY240 (peptide)", "peptide": "Ac-QSLEKS[pY]ELPDGG-NH2", "SMILES": "CC(=O)N[C@@H](CCC(N)=O)C(=O)N[C@@H](CO)C(=O)N[C@@H](CC(C)C)C(=O)N[C@@H](CCC(=O)O)C(=O)N[C@@H](CCCCN)C(=O)N[C@@H](CO)C(=O)N[C@@H](Cc1ccc(OP(=O)(O)O)cc1)C(=O)N[C@@H](CCC(=O)O)C(=O)N[C@@H](CC(C)C)C(=O)N1CCC[C@H]1C(=O)N[C@@H](CC(=O)O)C(=O)NCC(=O)NCC(N)=O", "notes": "flank added to the 11-residue stretch (surmised: last residue of the library's constant GQSGQ); ACTB, human, around pY240; flank added to the 11-residue stretch (surmised: first residue of the library's constant GGQSG); source: synthetic peptide (SynPeptide, China)"}, "B11": {"name": "ACTB pY240 P243L (peptide)", "peptide": "Ac-QSLEKS[pY]ELLDGG-NH2", "SMILES": "CC(=O)N[C@@H](CCC(N)=O)C(=O)N[C@@H](CO)C(=O)N[C@@H](CC(C)C)C(=O)N[C@@H](CCC(=O)O)C(=O)N[C@@H](CCCCN)C(=O)N[C@@H](CO)C(=O)N[C@@H](Cc1ccc(OP(=O)(O)O)cc1)C(=O)N[C@@H](CCC(=O)O)C(=O)N[C@@H](CC(C)C)C(=O)N[C@@H](CC(C)C)C(=O)N[C@@H](CC(=O)O)C(=O)NCC(=O)NCC(N)=O", "notes": "flank added to the 11-residue stretch (surmised: last residue of the library's constant GQSGQ); ACTB, human, around pY240, natural variant P243L; flank added to the 11-residue stretch (surmised: first residue of the library's constant GGQSG); source: synthetic peptide (SynPeptide, China)"}, "B12": {"name": "PLCG2 pY 753 (peptide)", "peptide": "Ac-QDINSL[pY]DVSRMG-NH2", "notes": "flank added to the 11-residue stretch (surmised: last residue of the library's constant GQSGQ); PLCG2, human, around pY753; flank added to the 11-residue stretch (surmised: first residue of the library's constant GGQSG); also called PLCγ2 pY753; source: synthetic peptide (SynPeptide, China)"}}, "conditions_in_all_cases": "both partners purified", "key": {"[1]": {"molecular_target": "T1, Grb2 SH2 domain (UniProt P62993 60-152, biotin (biotinylated SH2 domain of the selection))", "T1 construct": "SH2 domain of the adapter protein Grb2; source: purified", "T1 sequence (P62993 60-152)": "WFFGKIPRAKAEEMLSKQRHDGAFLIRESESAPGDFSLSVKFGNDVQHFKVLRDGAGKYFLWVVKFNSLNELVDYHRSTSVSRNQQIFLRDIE", "assay": "fluorescence polarisation; competition mode; unlabelled phosphopeptide against 30 nM FITC-Ahx-FDDPS(pY)VNVQN and 123 nM Grb2 SH2 (Table S3)"}, "[2]": {"molecular_target": "T2, Fyn SH2 domain (142-248) (human, UniProt P06241 142-248, biotin (on the AviTag))", "T2 construct": "SH2 domain of human Fyn kinase, residues 142-248; source: E. coli C43(DE3) with BirA helper plasmid, purified (HisTrap, anion exchange, Ulp1 cleavage, SEC); not shown: His6-SUMO, N-terminal, cleaved; AviTag, C-terminal, kept", "T2 sequence (P06241 142-248)": "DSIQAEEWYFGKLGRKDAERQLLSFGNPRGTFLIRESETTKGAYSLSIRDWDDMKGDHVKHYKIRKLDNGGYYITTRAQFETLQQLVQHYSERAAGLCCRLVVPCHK", "assay": "fluorescence polarisation; competition mode; unlabelled phosphopeptide against 0.4 nM FITC-Ahx-GDG-pY-EEISPLLL-NH2 and 4.125 nM Fyn SH2, as printed (Tables S3 and S5)"}, "[3]": {"molecular_target": "T3, c-Src SH2 domain (UniProt P12931-1 151-248, biotin (biotinylated SH2 domain of the selection))", "T3 construct": "SH2 domain of c-Src kinase; source: purified", "assay": "fluorescence polarisation; competition mode; unlabelled phosphopeptide against 30 nM FITC-Ahx-GDG-pY-EEISPLLL-NH2 and 122.745 nM c-Src SH2 (123.745 to 125.745 in three rows; Table S3)"}, "[4]": {"molecular_target": "T4, Lyn SH2 domain (121-228) (human, UniProt P07948 121-228, biotin (on the AviTag))", "T4 construct": "source: E. coli C43(DE3) with BirA helper plasmid, purified (HisTrap, anion exchange, Ulp1 cleavage, SEC); not shown: His6-SUMO, N-terminal, cleaved; AviTag, C-terminal, kept", "T4 sequence (P07948 121-228)": "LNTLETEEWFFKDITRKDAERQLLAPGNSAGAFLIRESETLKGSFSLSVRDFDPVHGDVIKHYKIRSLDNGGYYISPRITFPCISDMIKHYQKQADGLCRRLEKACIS", "assay": "fluorescence polarisation; competition mode; unlabelled phosphopeptide against 30 nM FITC-Ahx-GDG-pY-EEISPLLL-NH2 and 106.5 nM Lyn SH2 (Table S3)"}}, "note": "Non-standard residues stand in square brackets, D forms with d. *: point of attachment. FITC = O=C1OC2(c3ccc(O)cc3Oc3cc(O)ccc32)c2ccc(NC(=S)*)cc21; pY = N[C@@H](Cc1ccc(OP(=O)(O)O)cc1)C(=O)O; Ahx = NCCCCCC(=O)O", "data": [{"binder": "B1", "values": [{"measurement": "Kd", "setting": "[1]", "result": 2250, "unit": "nM"}]}, {"binder": "B2", "values": [{"measurement": "Kd", "setting": "[2]", "result": 30.2, "unit": "nM"}]}, {"binder": "B3", "values": [{"measurement": "Kd", "setting": "[3]", "result": 28.1, "unit": "nM"}, {"measurement": "Kd", "setting": "[4]", "result": 91, "unit": "nM"}]}, {"binder": "B4", "values": [{"measurement": "Kd", "setting": "[3]", "result": 909, "unit": "nM"}, {"measurement": "Kd", "setting": "[4]", "result": 943, "unit": "nM"}]}, {"binder": "B5", "values": [{"measurement": "Kd", "setting": "[2]", "result": 47.3, "unit": "nM"}]}, {"binder": "B6", "values": [{"measurement": "Kd", "setting": "[1]", "result": 3240, "unit": "nM"}]}, {"binder": "B7", "values": [{"measurement": "binding result", "setting": "[2]", "result": "binds"}, {"measurement": "binding result", "setting": "[4]", "result": "binds"}]}, {"binder": "B8", "values": [{"measurement": "Kd", "setting": "[1]", "result": 3.99, "unit": "nM"}]}, {"binder": "B9", "values": [{"measurement": "Kd", "setting": "[2]", "result": 18.3, "unit": "nM"}]}, {"binder": "B10", "values": [{"measurement": "Kd", "setting": "[2]", "result": 159, "unit": "nM"}]}, {"binder": "B11", "values": [{"measurement": "Kd", "setting": "[2]", "result": 141, "unit": "nM"}]}, {"binder": "B12", "values": [{"measurement": "Kd", "setting": "[3]", "result": 12300, "unit": "nM"}, {"measurement": "Kd", "setting": "[4]", "result": 11700, "unit": "nM"}]}]}
